Positions count from the first letter of the chain named.
T1: human AXL on the surface of tumor cells (human, UniProt P30530 26-894)
T1 construct: whole, on cells; endogenous protein of human tumor cell lines; the cell line is named under assay or readout; also called AXL on the cell surface
T1 sequence (looked up): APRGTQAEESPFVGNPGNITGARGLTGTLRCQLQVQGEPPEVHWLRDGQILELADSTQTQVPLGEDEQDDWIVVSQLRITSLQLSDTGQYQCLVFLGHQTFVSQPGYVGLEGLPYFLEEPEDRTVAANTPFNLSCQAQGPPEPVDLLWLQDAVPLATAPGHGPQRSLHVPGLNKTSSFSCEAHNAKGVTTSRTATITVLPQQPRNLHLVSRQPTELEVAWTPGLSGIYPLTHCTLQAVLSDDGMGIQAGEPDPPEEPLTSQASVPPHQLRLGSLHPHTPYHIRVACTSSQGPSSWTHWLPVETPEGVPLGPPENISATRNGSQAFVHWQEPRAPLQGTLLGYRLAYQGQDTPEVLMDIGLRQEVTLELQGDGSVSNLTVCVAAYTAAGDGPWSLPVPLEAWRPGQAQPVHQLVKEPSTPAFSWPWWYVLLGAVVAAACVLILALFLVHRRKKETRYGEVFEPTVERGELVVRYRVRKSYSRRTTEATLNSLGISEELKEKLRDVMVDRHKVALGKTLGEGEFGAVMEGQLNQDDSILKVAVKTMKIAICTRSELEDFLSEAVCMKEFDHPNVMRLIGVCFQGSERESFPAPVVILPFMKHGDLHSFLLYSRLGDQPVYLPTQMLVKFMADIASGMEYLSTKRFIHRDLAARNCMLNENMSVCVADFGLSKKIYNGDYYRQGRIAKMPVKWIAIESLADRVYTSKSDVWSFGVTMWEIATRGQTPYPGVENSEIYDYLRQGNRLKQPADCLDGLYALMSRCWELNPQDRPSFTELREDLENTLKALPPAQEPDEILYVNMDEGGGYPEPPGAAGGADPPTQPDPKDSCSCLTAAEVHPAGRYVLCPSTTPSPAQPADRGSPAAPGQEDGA

T2: extracellular domain of human AXL protein (AXL-ECD) (human, UniProt P30530 31-449)
T2 construct: expressed in HEK293T cells; coated on the ELISA plate; also called AXL-ECD protein; human AXL extracellular domain protein
T2 sequence: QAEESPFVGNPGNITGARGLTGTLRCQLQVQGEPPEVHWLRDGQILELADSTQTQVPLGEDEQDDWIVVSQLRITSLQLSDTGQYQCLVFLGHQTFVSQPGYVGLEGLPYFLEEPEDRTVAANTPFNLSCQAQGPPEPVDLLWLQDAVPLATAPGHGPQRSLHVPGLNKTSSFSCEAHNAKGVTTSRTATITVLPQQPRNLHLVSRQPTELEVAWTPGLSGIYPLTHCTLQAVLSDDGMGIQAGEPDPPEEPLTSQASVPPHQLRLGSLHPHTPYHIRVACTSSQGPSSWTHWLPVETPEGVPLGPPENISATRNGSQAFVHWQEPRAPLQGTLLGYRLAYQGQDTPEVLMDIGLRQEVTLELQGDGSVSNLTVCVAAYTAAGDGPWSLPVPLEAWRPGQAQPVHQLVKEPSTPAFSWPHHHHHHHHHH

B1: Hu002-5 (antibody, V domains shown)
VH: QVQLVQSGAEVKKPGASVKVSCKASGYPFTDFYINWVRQAPGQGLEWMGWIYPGSGNTKYNEKFKGRVTLTVDTSISTAYMELSRLRSDDTAVYYCARSTGFFDYWGQGTLVTVSS
VL: EIVLTQSPATLSLSPGERATLSCSASSSIGYMYWYQQKPGQAPRLLIYLTSNLASGIPARFSGSGSGTDYTLTISSLEPEDFAVYYCQQWSSNPPTFGQGTKLEIK
notes: humanized from mAb002c; also called Hu002c-5
B2: Hu002-17 (antibody, V domains shown)
VH: B1 VH
VL: EIVLTQSPDFQSVTPKEKVTITCSASSSIGYMYWYQQKPDQSPKLLIYLTSNLASGVPSRFSGSGSGTDYTLTINSLEAEDAATYYCQQWSSNPPTFGQGTKLEIK
notes: humanized from mAb002c; also called Hu002c-17
B3: Hu002-23 (antibody, V domains shown)
VH: B1 VH
VL: B2 VL with E1Q, L45S
notes: humanized from mAb002c; also called Hu002c-23
B4: Hu002-19 (antibody, V domains shown)
VH: B1 VH with L70M, V72R
VL: B2 VL with L45S
notes: humanized from mAb002c; also called Hu002c-19
B5: Hu002-12 (antibody, V domains shown)
VH: B1 VH with R38K, M48I
VL: B1 VL with E1Q, A42S, L45S
notes: humanized from mAb002c; also called Hu002c-12
B6: Hu002-10 (antibody, V domains shown)
VH: B1 VH with L70M, V72R
VL: B1 VL with E1Q, A42S, L45S
notes: humanized from mAb002c; also called Hu002c-10
B7: Hu002-3 (antibody, V domains shown)
VH: B1 VH with R38K, M48I
VL: B1 VL with Y70F
notes: humanized from mAb002c; also called Hu002c-3
B8: Hu002-14 (antibody, V domains shown)
VH: B1 VH
VL: B2 VL with Y48K, Y70F
notes: humanized from mAb002c; also called Hu002c-14
B9: Hu002-24 (antibody, V domains shown)
VH: B1 VH with R38K, M48I
VL: B2 VL with E1Q, L45S
notes: humanized from mAb002c; also called Hu002c-24
B10: Hu002-13 (antibody, V domains shown)
VH: B1 VH with L70M, V72R
VL: B2 VL with Y48K, Y70F
notes: humanized from mAb002c; also called Hu002c-13
B11: Hu002-20 (antibody, V domains shown)
VH: B1 VH
VL: B2 VL with L45S
notes: humanized from mAb002c; also called Hu002c-20
B12: Hu002-21 (antibody, V domains shown)
VH: B1 VH with R38K, M48I
VL: B2 VL with L45S
notes: humanized from mAb002c; also called Hu002c-21
B13: Hu002-16 (antibody, V domains shown)
VH: B1 VH with L70M, V72R
VL: B2 VL
notes: humanized from mAb002c; also called Hu002c-16
B14: Hu002-7 (antibody, V domains shown)
VH: B1 VH with L70M, V72R
VL: B1 VL with A42S, L45S
notes: humanized from mAb002c; also called Hu002c-7
B15: Hu002-18 (antibody, V domains shown)
VH: B1 VH with R38K, M48I
VL: B2 VL
notes: humanized from mAb002c; also called Hu002c-18
B16: Hu002-11 (antibody, V domains shown)
VH: B1 VH
VL: B1 VL with E1Q, A42S, L45S
notes: humanized from mAb002c; also called Hu002c-11
B17: Hu002-22 (antibody, V domains shown)
VH: B1 VH with L70M, V72R
VL: B2 VL with E1Q, L45S
notes: humanized from mAb002c; also called Hu002c-22
B18: Hu002-6 (antibody, V domains shown)
VH: B1 VH with R38K, M48I
VL: B1 VL
notes: humanized from mAb002c; also called Hu002c-6
B19: Hu002-8 (antibody, V domains shown)
VH: B1 VH
VL: B1 VL with A42S, L45S
notes: humanized from mAb002c; also called Hu002c-8
B20: Hu002-9 (antibody, V domains shown)
VH: B1 VH with R38K, M48I
VL: B1 VL with A42S, L45S
notes: humanized from mAb002c; also called Hu002c-9
B21: Hu002-15 (antibody, V domains shown)
VH: B1 VH with R38K, M48I
VL: B2 VL with Y48K, Y70F
notes: humanized from mAb002c; also called Hu002c-15

Each binder was assayed against T1, human AXL on the surface of tumor cells (assay: FACS on LCLC-103H cells).
Procedure: (§1) Then the obtained solutions were incubated at 4° C. for 1 h, the cells were washed twice with PBS to remove unbound primary antibody, and then the target cells were incubated with 200 μL PE-labeled secondary antibody (2 μg/mL) at 4° C. for 30 min. The cells were washed twice with PBS to remove unbound secondary antibody. Finally, the cells were resuspended in 200 μL PBS, and the binding affinity of the test antibody to AXL on the cell surface was determined by a flow cytometer (FACSCalibur)
The experimental method was referred to Example 8.

Row | EC50 [nM] | Binder
1 | 0.36 | B1

Each binder was assayed against T1, human AXL on the surface of tumor cells (assay: FACS on MDA-MB-231 cells).
Procedure: as §1
24 humanized antibodies in Table-6 were diluted by gradient, and their affinities to AXL, on the surface of MDA-MB-231 cells were determined by flow cytometer. The experimental method was referred to Example 8.

Row | EC50 [nM] | Highest MFI value (FACSCalibur) [MFI] | Binder
2 | 0.114 | 275 | B1
3 | 0.107 | 269 | B2
4 | 0.098 | 276 | B3
5 | 0.121 | 278 | B4
6 | 0.116 | 261 | B5
7 | 0.118 | 273 | B6
8 | 0.108 | 277 | B7
9 | 0.094 | 264 | B8
10 | 0.098 | 262 | B9
11 | 0.073 | 262 | B10
12 | 0.099 | 277 | B11
13 | 0.132 | 273 | B12
14 | 0.082 | 282 | B13
15 | 0.129 | 275 | B14
16 | 0.111 | 277 | B15
17 | 0.123 | 271 | B16
18 | 0.134 | 276 | B17
19 | 0.101 | 271 | B18
20 | 0.138 | 270 | B19
21 | 0.121 | 268 | B20
22 | 0.099 | 268 | B21

Each binder was assayed against T2, extracellular domain of human AXL … (assay: ELISA, plate-coated AXL-ECD).
Procedure: The extracellular domain of AXL protein (AXL-ECD) was diluted to […] with the coating solution, and coated onto ELISA plate with 100 μL/well at 4° C. overnight. The excess antigen was washed off. The plate was blocked with 1% BSA at room temperature for 2 h, then each monoclonal antibody in a 3-fold dilution was added at 100 µL/well. The plate was incubated at room temperature for 1 h; the unbound antibody was washed off, and appropriate concentration of anti-mouse secondary antibody labeled with horseradish peroxidase was added at 100 µL/well. The plate was incubated at room temperature for 0.5 h. The unbound secondary antibody was washed off. TMB Substrate was added and reacted for about 15 minutes. 1N HCL was added at 50 µL/well to stop the color reaction. Then the absorbance was measured at 450 nm and the obtained data was analyzed.
24 humanized antibodies in Table-6 were diluted by gradient, and their affinity to AXL-ECD protein was determined by ELISA. The experimental method was referred to Example 4.

Row | EC50 [nM] | TOP (OD450) | Binder
23 | 0.05 | 3.59 | B1
24 | 0.045 | 3.71 | B2
25 | 0.057 | 3.69 | B3
26 | 0.059 | 3.73 | B4
27 | 0.045 | 3.73 | B5
28 | 0.068 | 3.58 | B6
29 | 0.048 | 3.6 | B7
30 | 0.052 | 3.72 | B8
31 | 0.051 | 3.65 | B9
32 | 0.047 | 3.73 | B10
33 | 0.054 | 3.71 | B11
34 | 0.046 | 3.71 | B12
35 | 0.047 | 3.76 | B13
36 | 0.058 | 3.59 | B14
37 | 0.055 | 3.71 | B15
38 | 0.043 | 3.74 | B16
39 | 0.059 | 3.67 | B17
40 | 0.052 | 3.63 | B18
41 | 0.049 | 3.59 | B19
42 | 0.067 | 3.62 | B20
43 | 0.05 | 3.72 | B21
